Assay results from patent US12692310B2, “ASIC1 channel antagonist antibody” (ShanghaiTech University, priority 2019, dated 2026).

Experiments:
hASIC1a F252A = experiment: FACS binding to alanine mutant hASIC1a-eYFP on CHO-K1 cells; assay type: cell-based, human; settings: vs WT hASIC1a
Experimental: To confirm the role of these amino acids, alanine mutagenesis was performed and four amino acids are very important for antibody binding were identified. Plasmid encoding single amino acid mutation of hASIC1a-eYFP was constructed and transient transfected into CHO-K1 cells. FACS binding assay was then performed to test whether the ASC06-IgG1 still binds to cell surface expressing mutated hASIC1a.

[1] = target: T1, hASIC1a-eYFP on CHO-K1 cells (Homo sapiens, UniProt P78348); experiment: Immunocytochemistry on CHO-K1/hASIC1a cells; assay type: cell-based; settings: ICC, confocal
T1 construct: overexpress the full-length hASIC1a (1-528 amino acids) protein fused with eYFP; expressed in transfected cells; host or cells: CHO-K1, transient
T1 sequence (P78348 1-528): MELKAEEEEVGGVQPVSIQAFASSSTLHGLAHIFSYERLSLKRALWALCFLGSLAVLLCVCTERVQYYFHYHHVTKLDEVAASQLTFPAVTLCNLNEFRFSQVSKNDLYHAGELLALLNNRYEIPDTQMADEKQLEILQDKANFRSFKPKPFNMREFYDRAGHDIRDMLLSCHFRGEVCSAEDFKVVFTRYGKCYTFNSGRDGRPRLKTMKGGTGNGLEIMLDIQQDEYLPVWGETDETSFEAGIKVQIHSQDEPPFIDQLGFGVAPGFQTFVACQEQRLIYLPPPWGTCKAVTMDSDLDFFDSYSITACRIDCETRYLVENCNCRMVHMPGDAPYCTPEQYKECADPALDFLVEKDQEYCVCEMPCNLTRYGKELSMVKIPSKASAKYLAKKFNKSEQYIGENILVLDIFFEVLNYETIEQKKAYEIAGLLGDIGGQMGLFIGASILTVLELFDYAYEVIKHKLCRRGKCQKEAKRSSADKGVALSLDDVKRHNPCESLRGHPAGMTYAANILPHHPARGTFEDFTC
Experimental: Cell Membrane Colocalization Studies Using Immunocytochemistry (ICC). Cells (CHO-K1) were seeded onto the poly-D-lysine-coated glass bottom 24-well plates at a concentration of 2×10^5 cells per mL. After 12 h of cultivation, the CHO-K1 cells were transfected with ASIC plasmids by Lipofectin 3000 reagent. Twenty-four hours after transfection, the cells were fixed in 4% paraformaldehyde and incubated for 30 min in a blocking solution (5% goat serum in PBS). The resulting cells were incubated with […] ASC06-IgG1 at 4° C. overnight followed by three PBS washes for 5 min each and incubation with the Alexa555-conjugated goat anti-human secondary antibody (Life Technology). After three additional PBS washes for 5 min each, the nuclei of the cells were stained with DAPI (#10236276001; Roche). The ICC analysis was performed on a laser scanning confocal microscopy (ZEISS LSM710) with a 63×N.A. 1.4 objective at 25° C. Images were collected on a 1,024×1,024-pixel EM-CCD camera. Data acquisition and analyses were performed with the ZEN 2012 professional software.
To understand whether ASC01-ASC06 specifically bind to the ASIC1a protein expressed on cell surface, the binding of the antibodies to CHO-K1/hASIC1a cells was evaluated using immunocytochemistry. The CHO-K1/hASIC1a cells overexpress the full-length hASIC1a (1-528 amino acids) protein fused with eYFP. […] It is likely that ASC01-ASC05 recognize specific ASIC1a confirmations or subpopulations.
The ASC06 antibody was converted into a full length IgG1 form (ASC06-IgG1) for further study. […] The binding of ASC06-IgG1 to CHO-K1/hASIC1a cells was evaluated using immunocytochemistry, in comparison with the ASC06 (scFv format) antibody.

ΔhASIC1a = target: T2, ΔhASIC1a (Homo sapiens, UniProt P78348); experiment: Biacore SPR binding affinity, single cycle kinetic model; settings: Biacore T200, purified ΔhASIC1a protein, read-out: apparent KD / binding affinity to ΔhASIC1a
T2 construct: A truncated ASIC1a (amino acids 13-464; ΔhASIC1a) was overexpressed and purified; made in house; host or cells: HEK293F (BacMam baculovirus)
T2 sequence (P78348 13-464): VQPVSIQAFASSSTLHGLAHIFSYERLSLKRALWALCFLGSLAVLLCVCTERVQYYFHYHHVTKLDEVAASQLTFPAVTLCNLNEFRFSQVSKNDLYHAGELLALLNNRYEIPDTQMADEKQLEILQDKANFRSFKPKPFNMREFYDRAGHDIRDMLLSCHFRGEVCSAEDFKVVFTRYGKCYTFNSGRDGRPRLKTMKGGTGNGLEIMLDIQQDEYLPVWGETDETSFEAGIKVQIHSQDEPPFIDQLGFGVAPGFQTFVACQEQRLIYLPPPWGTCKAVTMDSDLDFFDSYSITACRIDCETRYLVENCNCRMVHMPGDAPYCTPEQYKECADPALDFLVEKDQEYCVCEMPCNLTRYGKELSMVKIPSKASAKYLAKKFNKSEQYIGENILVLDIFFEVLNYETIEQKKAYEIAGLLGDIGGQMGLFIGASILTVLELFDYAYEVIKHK
Experimental: Surface plasmon resonance (SPR) and flow cytometry were used to study the interaction between the monoclonal antibody and hASIC1a. SPR-binding studies were performed on a Biacore T200 (GE Healthcare). The anti-Flag antibody was amine coupled to the surface of a biosensor chip CM5 series S (GE Healthcare). The recombinant Flag-tagged ΔhASIC1a was then immobilized onto the chip surface. […] The kinetics of binding/dissociation was measured as a change in the SPR signal resonance units. Apparent binding affinities were calculated using the Biacore T200 evaluation software with a single-cycle kinetic model.

hASIC1a-eYFP = target: T3, hASIC1a-eYFP (Homo sapiens, UniProt P78348); experiment: Western blot and immunoprecipitation of 6H7 cell lysate; assay type: binding; design: expressed in transfected cells
T3 sequence (P78348 1-528): T1 sequence (P78348 1-528)
Excerpt: To characterize the interaction between ASC06-IgG1 and hASIC1a, the 6H7 stable line expressing the hASIC1a-eYFP fusion protein was used in a Western blot analysis. […] In contrast, both the commercial goat polyclonal anti-ASIC1 antibody and the anti-eYFP antibody were able to detect the hASIC1a-eYFP protein in the 6H7 lysate at molecular mass around 100 kDa (FIG. 13A and data not shown).
ASC06-IgG1 was used to pull down native hASIC1a-YFP in cell lysate followed by anti-eYFP Western blot for hASIC1a-YFP detection.

B1: ASC06-IgG1: ASC06 antibody converted into a full length IgG1 form (antibody, V domains shown)
VH: QVQLQQSGGGLVQPGGSLRLSCAASGFTFSSYAMSWVRQAPGKGLEWVSAISGSGGSTYYADSVKGRFTISRDNSKNTLYLQMNSLRAEDTAVYYCAKDSFYGYSKGDWGQGTLVTVSS
VL: QSALTQPASVSGSPGQSITISCTGTSSDVGAYNYVSWYQQQPGKAPKLMIYGVSNRPSGVSNRFSGSKSGNAASLTISGLQAEDEADYYCSSYTSSSTYVFGTGTKLTVLG
binding to hASIC1a F252A mutation (hASIC1a F252A): so does
membrane co-localization with hASIC1a [1]: membrane co-localization with hASIC1a
Kd (ΔhASIC1a): 7.9 nM
recognition of hASIC1a in cell lysate in Western blot (hASIC1a-eYFP; denatured lysate of 6H7 cells): could not recognize
pull down of native hASIC1a-YFP, anti-eYFP Western blot (hASIC1a-eYFP; immunoprecipitation): recognized hASIC1a in a conformation-dependent manner
